Assay results from patent US6900033 (dated 2005).
Positions of bridges follow the written chain, without caps; N, C: chain ends.

Target: ACE-2 (human)
Assay: other, ACE-2 enzyme inhibition

Sequence of ACE-2 (human) (Q9BYF1 1-740): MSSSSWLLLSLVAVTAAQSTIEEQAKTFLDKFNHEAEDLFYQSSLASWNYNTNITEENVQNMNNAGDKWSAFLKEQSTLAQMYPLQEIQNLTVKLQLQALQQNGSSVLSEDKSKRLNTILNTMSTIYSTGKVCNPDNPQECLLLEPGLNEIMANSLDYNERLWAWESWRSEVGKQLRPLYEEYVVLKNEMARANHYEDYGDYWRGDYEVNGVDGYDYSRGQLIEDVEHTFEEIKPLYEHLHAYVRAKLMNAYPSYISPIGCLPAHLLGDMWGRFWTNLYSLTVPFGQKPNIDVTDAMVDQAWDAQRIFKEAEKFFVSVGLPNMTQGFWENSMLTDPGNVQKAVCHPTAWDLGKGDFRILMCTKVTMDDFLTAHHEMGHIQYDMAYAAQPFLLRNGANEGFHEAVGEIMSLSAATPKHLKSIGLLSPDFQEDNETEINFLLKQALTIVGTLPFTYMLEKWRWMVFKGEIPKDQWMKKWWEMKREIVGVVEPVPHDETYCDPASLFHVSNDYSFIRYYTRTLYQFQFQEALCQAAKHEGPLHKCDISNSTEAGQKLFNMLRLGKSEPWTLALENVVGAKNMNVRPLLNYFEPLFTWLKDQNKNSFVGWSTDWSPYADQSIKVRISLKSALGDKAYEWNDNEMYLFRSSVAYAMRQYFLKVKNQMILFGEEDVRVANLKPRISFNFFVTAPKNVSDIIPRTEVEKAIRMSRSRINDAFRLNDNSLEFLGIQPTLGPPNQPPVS

| Binder | Ki |
| --- | --- |
| Ac-GDLHACRPVRGDPWWACTLGDPEGGG-NH2 (disulfide 6-17 (inferred)) [DX-513] | 150 nM |
| Ac-GDRLHCKPQRQSPWMKCQHLDPEGGG-NH2 (disulfide 6-17 (inferred)) [DX-512] | 150 nM |
